Assay results: CN114031685A (INST MILITARY MEDICINE ACADEMY MILITARY SCIENCES PLA, dated 2022)

What was measured:
[1] = target: SARS-CoV-2 WT S-ECD蛋白 (新冠野生株, Genbank NC_045512.2) (SARS-CoV-2, UniProt P0DTC2 14-1213)
[2] = target: Alpha株 S蛋白 (on pseudovirus) (SARS-CoV-2 Alpha株 (B.1.1.7)); assay: cell-based or functional assay
[3] = target: Beta株 S蛋白 (on pseudovirus / live virus) (SARS-CoV-2 Beta株 (B.1.351)); assay: cell-based or functional assay
[4] = target: Gamma株 S蛋白 (on pseudovirus) (SARS-CoV-2 Gamma株 (P.1)); assay: cell-based or functional assay
[5] = target: Delta株 S蛋白 (on pseudovirus / live virus) (SARS-CoV-2 Delta株 (B.1.617.2)); assay: cell-based or functional assay
[6] = target: Omicron株 S蛋白 (on pseudovirus) (SARS-CoV-2 Omicron株 (B.1.1.529)); assay: cell-based or functional assay

B1: 抗SARS-CoV-2全人源单克隆抗体ZW2G10 (antibody, V domains shown)
VH: EVQLVESGGGLVQPGRSLRLSCAASGFTFDDYAMHWVRQAPGKGLEWVSGITWNSGTIGYADSVKGRFIISRDNAKNSLHLQMNSLRVEDTALYYCAKDNSDYSGYYWELENYGMDVWGQGTTVTVSS
VL: QSVLTQPPSVSGAPGQRVTISCTGSSSNIGAGYDVHWYQQLPGTAPKLLIYDNNNRPSGVPDRFSGSKSGTSASLAITGLQAEDEADYYCQSFDSSLSGVVFGGGTRLTVLR
notes: also called 单抗ZW2G10
Kd [1]: 0.243 nM | 假病毒中和 EC50 [2]: 0.0141 µg/mL | 假病毒中和 EC50 [3]: 0.0184 µg/mL | 真病毒中和 EC50 (Vero E6) [3]: 1.42 µg/mL | 假病毒中和 EC50 [4]: 0.0156 µg/mL | 假病毒中和 EC50 [5]: 0.0362 µg/mL | 真病毒中和 EC50 (Vero E6) [5]: 0.71 µg/mL | 假病毒中和 EC50 [6]: 0.0193 µg/mL
